The results in this text go back to patent US20180263927A1.

The assay concerns the target PSA (prostate specific antigen) (UniProt P07288). In words: cell-based or functional assay.
Chain of UniProt P07288 (P07288 25-261 limits assumed): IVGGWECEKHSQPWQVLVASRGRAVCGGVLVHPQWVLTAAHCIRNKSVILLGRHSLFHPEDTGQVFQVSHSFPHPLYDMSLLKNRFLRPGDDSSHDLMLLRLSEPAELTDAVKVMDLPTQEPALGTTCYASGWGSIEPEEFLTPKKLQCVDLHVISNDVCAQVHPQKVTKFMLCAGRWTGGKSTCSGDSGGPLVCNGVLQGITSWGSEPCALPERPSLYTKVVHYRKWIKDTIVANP

Substance “Analog 221 (211/amide or nonester) Mu-His-Ser-Ser-Lys(Fmoc)-Leu-Gln-Leu (peptide)” yielded a cytotoxicity IC50, 48 hour exposure, Prostate DuPro cells (trace PSA) of 13 µM; a cytotoxicity IC50, 48 hour exposure, Prostate LnCAP cells (positive PSA) of 0.8 µM; a cytotoxicity IC50, 48 hour exposure, Prostate PC3 cells (negative PSA, control) of over 21 µM.
